Experimental data taken from PMC9482650, “Quantitative fragmentomics allow affinity mapping of interactomes” (Nature Communications, 2022).
Blank lines part the entries; values can stand above or below the binder they belong to.

Key:
Assay in all cases: holdup assay
Parameters in all cases: key: below the threshold = too weak to quantify, mostly under pKd 3.1 to 4
Inadl_1, Q8NI35 = biological target: Inadl_1, Q8NI35
GRIP2_7, Q9C0E4 = biological target: GRIP2_7, Q9C0E4
SCRIB_2, Q14160 = biological target: SCRIB_2, Q14160
Sequence of SCRIB_2, Q14160 (Q14160 857-960): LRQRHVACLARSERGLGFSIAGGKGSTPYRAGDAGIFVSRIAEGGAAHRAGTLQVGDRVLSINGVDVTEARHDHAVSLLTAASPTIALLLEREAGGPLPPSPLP

CASK, O14936 = biological target: CASK, O14936
Sequence of CASK, O14936 (O14936 487-570): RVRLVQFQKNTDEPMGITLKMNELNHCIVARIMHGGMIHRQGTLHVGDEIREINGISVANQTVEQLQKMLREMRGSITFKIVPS

MPDZ_10, O75970 = biological target: T1, MPDZ_10, O75970
T1 sequence (O75970 1624-1722, limits assumed, looked up): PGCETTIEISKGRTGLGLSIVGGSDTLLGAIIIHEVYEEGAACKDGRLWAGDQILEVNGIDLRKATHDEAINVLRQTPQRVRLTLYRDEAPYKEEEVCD

DFNB31_3, Q9P202 = biological target: T2, DFNB31_3, Q9P202
T2 sequence (Q9P202 811-907, limits assumed, looked up): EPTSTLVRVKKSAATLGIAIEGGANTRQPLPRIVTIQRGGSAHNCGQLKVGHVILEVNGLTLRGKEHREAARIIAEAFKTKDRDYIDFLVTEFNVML

GORASP1, Q9BQQ3 = biological target: GORASP1, Q9BQQ3
Sequence of GORASP1, Q9BQQ3 (Q9BQQ3 1-208): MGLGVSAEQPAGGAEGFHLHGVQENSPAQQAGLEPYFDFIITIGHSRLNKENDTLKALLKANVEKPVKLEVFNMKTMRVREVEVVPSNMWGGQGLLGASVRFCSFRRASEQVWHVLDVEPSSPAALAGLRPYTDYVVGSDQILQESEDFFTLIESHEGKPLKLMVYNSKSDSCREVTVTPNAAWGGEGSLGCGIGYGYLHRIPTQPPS

NHERF4_1, Q86UT5-2 = biological target: NHERF4_1, Q86UT5-2
Sequence of NHERF4_1, Q86UT5-2 (Q86UT5 other isoform, or with tags, fused parts or gaps): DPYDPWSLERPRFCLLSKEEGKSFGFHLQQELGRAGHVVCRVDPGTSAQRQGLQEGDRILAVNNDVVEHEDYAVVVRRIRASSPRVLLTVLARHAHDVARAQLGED

GRIP1_7, Q9Y3R0 = biological target: T3, GRIP1_7, Q9Y3R0
T3 sequence (Q9Y3R0 999-1096, limits assumed, looked up): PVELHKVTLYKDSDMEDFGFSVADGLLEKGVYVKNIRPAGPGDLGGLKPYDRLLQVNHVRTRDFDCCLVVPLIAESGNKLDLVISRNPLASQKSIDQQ

LIN7C, Q9NUP9 = biological target: T4, LIN7C, Q9NUP9
T4 sequence (Q9NUP9 88-185, limits assumed, looked up): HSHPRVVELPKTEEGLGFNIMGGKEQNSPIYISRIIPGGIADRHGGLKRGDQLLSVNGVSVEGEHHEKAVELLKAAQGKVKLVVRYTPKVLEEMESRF

LNX1_1, Q8TBB1 = biological target: LNX1_1, Q8TBB1
Sequence of LNX1_1, Q8TBB1 (Q8TBB1 261-371): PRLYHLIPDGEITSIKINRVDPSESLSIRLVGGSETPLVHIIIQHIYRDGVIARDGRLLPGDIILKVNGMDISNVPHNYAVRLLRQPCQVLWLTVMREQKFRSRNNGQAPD

TJP3_3, O95049 = biological target: T5, TJP3_3, O95049
T5 sequence (O95049 375-456, limits assumed, looked up): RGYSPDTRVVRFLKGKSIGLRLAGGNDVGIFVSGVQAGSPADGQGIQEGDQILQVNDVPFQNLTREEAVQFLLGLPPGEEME

GRID2IP_1, A4D2P6 = biological target: GRID2IP_1, A4D2P6
Sequence of GRID2IP_1, A4D2P6 (A4D2P6 1-87): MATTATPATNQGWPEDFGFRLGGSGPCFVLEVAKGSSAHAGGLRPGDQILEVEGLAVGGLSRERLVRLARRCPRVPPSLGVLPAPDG

PICK1, Q9NRD5 = biological target: PICK1, Q9NRD5
Sequence of PICK1, Q9NRD5 (Q9NRD5 17-115): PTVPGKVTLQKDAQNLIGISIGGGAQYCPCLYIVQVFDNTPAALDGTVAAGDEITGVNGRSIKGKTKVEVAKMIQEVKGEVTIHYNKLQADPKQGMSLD

Inadl_10, Q8NI35 = biological target: Inadl_10, Q8NI35
Sequence of Inadl_10, Q8NI35 (Q8NI35 1673-1763): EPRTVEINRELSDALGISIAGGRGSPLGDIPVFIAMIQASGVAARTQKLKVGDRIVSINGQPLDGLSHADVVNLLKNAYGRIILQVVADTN

Inadl_6, Q8NI35 = biological target: Inadl_6, Q8NI35
Sequence of Inadl_6, Q8NI35 (Q8NI35 1058-1167): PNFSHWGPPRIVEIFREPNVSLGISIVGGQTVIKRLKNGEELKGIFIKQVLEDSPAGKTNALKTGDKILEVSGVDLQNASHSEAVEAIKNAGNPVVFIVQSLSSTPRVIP

GRIP2_5, Q9C0E4 = biological target: GRIP2_5, Q9C0E4
Sequence of GRIP2_5, Q9C0E4 (Q9C0E4 544-642): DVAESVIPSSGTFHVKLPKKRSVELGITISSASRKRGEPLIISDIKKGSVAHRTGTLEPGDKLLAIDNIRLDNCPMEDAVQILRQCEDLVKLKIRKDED

TJP1_3, Q07157 = biological target: TJP1_3, Q07157
Sequence of TJP1_3, Q07157 (Q07157 416-512): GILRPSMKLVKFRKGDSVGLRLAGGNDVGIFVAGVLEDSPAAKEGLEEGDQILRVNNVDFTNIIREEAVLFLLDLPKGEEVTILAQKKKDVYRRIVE

HTRA2, O43464 = biological target: HTRA2, O43464
Sequence of HTRA2, O43464 (O43464 355-458): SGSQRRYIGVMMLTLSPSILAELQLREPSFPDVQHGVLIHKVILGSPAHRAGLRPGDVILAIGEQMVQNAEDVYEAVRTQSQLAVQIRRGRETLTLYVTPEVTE

DLG5_1, Q8TDM6 = biological target: DLG5_1, Q8TDM6
Sequence of DLG5_1, Q8TDM6 (Q8TDM6 617-713): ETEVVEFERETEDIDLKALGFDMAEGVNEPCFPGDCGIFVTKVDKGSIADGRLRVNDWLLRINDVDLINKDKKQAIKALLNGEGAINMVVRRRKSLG

MAGI3_2, Q5TCQ9 = biological target: MAGI3_2, Q5TCQ9
Sequence of MAGI3_2, Q5TCQ9 (Q5TCQ9 398-503): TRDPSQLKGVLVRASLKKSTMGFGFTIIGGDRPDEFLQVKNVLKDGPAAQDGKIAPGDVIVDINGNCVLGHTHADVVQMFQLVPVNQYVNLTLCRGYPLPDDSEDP

TJP1_2, Q07157 = biological target: TJP1_2, Q07157
Sequence of TJP1_2, Q07157 (Q07157 181-274): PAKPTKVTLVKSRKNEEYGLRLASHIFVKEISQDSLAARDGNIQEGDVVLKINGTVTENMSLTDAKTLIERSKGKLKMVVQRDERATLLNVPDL

DFNB31_2, Q9P202 = biological target: T6, DFNB31_2, Q9P202
T6 sequence (Q9P202 274-371, limits assumed, looked up): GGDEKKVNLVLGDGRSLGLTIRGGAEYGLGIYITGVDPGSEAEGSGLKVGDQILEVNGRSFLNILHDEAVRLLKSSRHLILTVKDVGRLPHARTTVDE

MPP7, Q5T2T1 = biological target: T7, MPP7, Q5T2T1
T7 sequence (Q5T2T1 134-230, limits assumed, looked up): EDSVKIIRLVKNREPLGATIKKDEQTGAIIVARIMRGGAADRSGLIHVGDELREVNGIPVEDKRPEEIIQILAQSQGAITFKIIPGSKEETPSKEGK

Inadl_2, Q8NI35 = biological target: Inadl_2, Q8NI35
Sequence of Inadl_2, Q8NI35 (Q8NI35 238-335): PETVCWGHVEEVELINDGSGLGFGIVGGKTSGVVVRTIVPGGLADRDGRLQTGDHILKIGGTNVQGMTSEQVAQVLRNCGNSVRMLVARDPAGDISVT

GRID2IP_2, A4D2P6 = biological target: GRID2IP_2, A4D2P6
Sequence of GRID2IP_2, A4D2P6 (A4D2P6 272-370): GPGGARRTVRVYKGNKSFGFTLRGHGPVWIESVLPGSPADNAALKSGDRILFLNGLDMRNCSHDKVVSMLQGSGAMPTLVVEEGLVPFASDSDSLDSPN

LNX2_3, Q8N448 = biological target: T8, LNX2_3, Q8N448
T8 sequence (Q8N448 463-564, limits assumed, looked up): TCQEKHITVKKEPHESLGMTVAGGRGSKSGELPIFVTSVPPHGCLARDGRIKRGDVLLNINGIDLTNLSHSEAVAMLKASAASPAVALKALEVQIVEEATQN

SNTB1, Q13884 = biological target: T9, SNTB1, Q13884
T9 sequence (Q13884 107-205, limits assumed, looked up): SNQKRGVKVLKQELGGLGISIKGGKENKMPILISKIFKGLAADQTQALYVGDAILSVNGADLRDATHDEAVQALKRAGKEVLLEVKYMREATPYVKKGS

[1] = plain residues with an end cap or a label only (N-terminal biotin on a linker: ahx)
[2] = plain residues with an end cap or a label only (N-terminal biotin on a linker: ado-ado)

Sequence of GRIP2_7, Q9C0E4 (Q9C0E4 934-1023): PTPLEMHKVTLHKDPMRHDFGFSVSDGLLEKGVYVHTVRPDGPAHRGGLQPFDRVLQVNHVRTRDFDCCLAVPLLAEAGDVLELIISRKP
Sequence of Inadl_1, Q8NI35 (Q8NI35 113-229): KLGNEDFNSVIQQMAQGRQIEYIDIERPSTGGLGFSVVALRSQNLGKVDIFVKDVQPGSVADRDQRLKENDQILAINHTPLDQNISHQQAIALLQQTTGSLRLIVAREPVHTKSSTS

- pKd (Inadl_1, Q8NI35; [1]): below the threshold
- pKd (GRIP2_7, Q9C0E4; [1]): 4.13
- pKd (SCRIB_2, Q14160; [1]): 5.16
- pKd (CASK, O14936; [1]): below the threshold
- pKd (MPDZ_10, O75970; [1]): below the threshold
- pKd (DFNB31_3, Q9P202; [1]): below the threshold
- pKd (GORASP1, Q9BQQ3; [1]): 4
- pKd (NHERF4_1, Q86UT5-2; [1]): below the threshold
- pKd (GRIP1_7, Q9Y3R0; [1]): below the threshold
- pKd (LIN7C, Q9NUP9; [1]): below the threshold
- pKd (LNX1_1, Q8TBB1; [1]): below the threshold
- pKd (TJP3_3, O95049; [1]): 4.73
- pKd (GRID2IP_1, A4D2P6; [1]): below the threshold
- pKd (PICK1, Q9NRD5; [1]): below the threshold
- pKd (Inadl_10, Q8NI35; [1]): below the threshold
- pKd (Inadl_6, Q8NI35; [1]): 4.33
- pKd (GRIP2_5, Q9C0E4; [1]): below the threshold
- pKd (TJP1_3, Q07157; [1]): 3.62
- pKd (HTRA2, O43464; [1]): 3.68
- pKd (DLG5_1, Q8TDM6; [1]): below the threshold
- pKd (MAGI3_2, Q5TCQ9; [1]): 3.68
- pKd (TJP1_2, Q07157; [1]): below the threshold
- pKd (DFNB31_2, Q9P202; [1]): below the threshold
- pKd (MPP7, Q5T2T1; [1]): below the threshold
- pKd (Inadl_2, Q8NI35; [1]): below the threshold
- pKd (GRID2IP_2, A4D2P6; [1]): below the threshold
- pKd (LNX2_3, Q8N448; [1]): below the threshold
- pKd (SNTB1, Q13884; [1]): 3.5
Binder: AKPQPVDSWV [ARVCF, O00192]

- pKd (Inadl_1, Q8NI35; [2]): below the threshold
- pKd (GRIP2_7, Q9C0E4; [2]): below the threshold
- pKd (SCRIB_2, Q14160; [2]): below the threshold
- pKd (CASK, O14936; [2]): below the threshold
- pKd (MPDZ_10, O75970; [2]): below the threshold
- pKd (DFNB31_3, Q9P202; [2]): below the threshold
- pKd (GORASP1, Q9BQQ3; [2]): 3.52
- pKd (NHERF4_1, Q86UT5-2; [2]): below the threshold
- pKd (GRIP1_7, Q9Y3R0; [2]): below the threshold
- pKd (LIN7C, Q9NUP9; [2]): below the threshold
- pKd (LNX1_1, Q8TBB1; [2]): below the threshold
- pKd (TJP3_3, O95049; [2]): below the threshold
- pKd (GRID2IP_1, A4D2P6; [2]): below the threshold
- pKd (PICK1, Q9NRD5; [2]): 4.17
- pKd (Inadl_10, Q8NI35; [2]): below the threshold
- pKd (Inadl_6, Q8NI35; [2]): below the threshold
- pKd (GRIP2_5, Q9C0E4; [2]): below the threshold
- pKd (TJP1_3, Q07157; [2]): below the threshold
- pKd (HTRA2, O43464; [2]): below the threshold
- pKd (DLG5_1, Q8TDM6; [2]): below the threshold
- pKd (MAGI3_2, Q5TCQ9; [2]): below the threshold
- pKd (TJP1_2, Q07157; [2]): 3.72
- pKd (DFNB31_2, Q9P202; [2]): below the threshold
- pKd (MPP7, Q5T2T1; [2]): below the threshold
- pKd (Inadl_2, Q8NI35; [2]): below the threshold
- pKd (GRID2IP_2, A4D2P6; [2]): below the threshold
- pKd (LNX2_3, Q8N448; [2]): below the threshold
- pKd (SNTB1, Q13884; [2]): below the threshold
Binder: PDSYHRRDFW [U2AF2, P26368]

- pKd (Inadl_1, Q8NI35; [1]): below the threshold
- pKd (GRIP2_7, Q9C0E4; [1]): below the threshold
- pKd (SCRIB_2, Q14160; [1]): 3.82
- pKd (CASK, O14936; [1]): below the threshold
- pKd (MPDZ_10, O75970; [1]): 3.48
- pKd (DFNB31_3, Q9P202; [1]): below the threshold
- pKd (GORASP1, Q9BQQ3; [1]): below the threshold
- pKd (NHERF4_1, Q86UT5-2; [1]): below the threshold
- pKd (GRIP1_7, Q9Y3R0; [1]): below the threshold
- pKd (LIN7C, Q9NUP9; [1]): below the threshold
- pKd (LNX1_1, Q8TBB1; [1]): 3.72
- pKd (TJP3_3, O95049; [1]): below the threshold
- pKd (GRID2IP_1, A4D2P6; [1]): below the threshold
- pKd (PICK1, Q9NRD5; [1]): below the threshold
- pKd (Inadl_10, Q8NI35; [1]): below the threshold
- pKd (Inadl_6, Q8NI35; [1]): below the threshold
- pKd (GRIP2_5, Q9C0E4; [1]): below the threshold
- pKd (TJP1_3, Q07157; [1]): below the threshold
- pKd (HTRA2, O43464; [1]): below the threshold
- pKd (DLG5_1, Q8TDM6; [1]): below the threshold
- pKd (MAGI3_2, Q5TCQ9; [1]): below the threshold
- pKd (TJP1_2, Q07157; [1]): below the threshold
- pKd (DFNB31_2, Q9P202; [1]): below the threshold
- pKd (MPP7, Q5T2T1; [1]): below the threshold
- pKd (Inadl_2, Q8NI35; [1]): below the threshold
- pKd (GRID2IP_2, A4D2P6; [1]): 3.48
- pKd (LNX2_3, Q8N448; [1]): below the threshold
- pKd (SNTB1, Q13884; [1]): 3.64
Binder: KDECVIATEV [DLL1, O00548]
